One molecule from paper PMC8444507 (Signal Transduction and Targeted Therapy, 2021) can be followed below.

Where “and” joins values, the source holds several entries; their conditions need not be identical. Identical values can stand only once.

In the experiment the target is T1, wild-type human ACE2 peptidase domain (PD) (human, UniProt Q9BYF1 19-615).
T1 construct: also called ACE2/WT; ACE2 WT
The experiment in a line: SPR. The settings on record: both partners purified.

T1 sequence (Q9BYF1 19-615): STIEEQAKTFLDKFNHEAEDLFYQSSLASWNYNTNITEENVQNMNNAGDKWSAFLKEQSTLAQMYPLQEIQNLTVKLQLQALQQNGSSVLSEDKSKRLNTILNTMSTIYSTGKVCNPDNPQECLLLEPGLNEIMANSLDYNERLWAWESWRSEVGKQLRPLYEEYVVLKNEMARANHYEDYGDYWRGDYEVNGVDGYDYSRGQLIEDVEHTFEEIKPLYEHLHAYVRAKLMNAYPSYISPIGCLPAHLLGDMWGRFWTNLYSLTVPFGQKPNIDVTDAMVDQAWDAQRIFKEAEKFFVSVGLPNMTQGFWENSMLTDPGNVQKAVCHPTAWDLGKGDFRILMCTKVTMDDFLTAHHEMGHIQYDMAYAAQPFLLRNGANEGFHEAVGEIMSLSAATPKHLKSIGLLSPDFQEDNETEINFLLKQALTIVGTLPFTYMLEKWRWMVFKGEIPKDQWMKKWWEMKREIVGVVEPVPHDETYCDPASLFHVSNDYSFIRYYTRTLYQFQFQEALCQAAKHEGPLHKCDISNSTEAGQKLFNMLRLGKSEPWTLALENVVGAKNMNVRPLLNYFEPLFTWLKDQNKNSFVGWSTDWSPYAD

B1: SARS-CoV spike receptor-binding domain (S-RBD), wild-type (domain or fragment)
chain: not shown
One may read the Kd as the concentration at which binding is half-saturated. A lower Kd goes with higher affinity. In the case of B1, the Kd was 523 nM and 971 nM and 500 nM.
